Test results from US6046165.

Columns and labels:
[1] = biological target: MAD full length (B-H) (Drosophila melanogaster) (UniProt P42003); test: EMSA; conditions: approximately 100-fold lower than MAD^N
[2] = biological target: MAD^N (B-Pv) (Drosophila melanogaster) (UniProt P42003); test: EMSA
Chain of MAD^N (B-Pv) (Drosophila melanogaster) (P42003 1-241): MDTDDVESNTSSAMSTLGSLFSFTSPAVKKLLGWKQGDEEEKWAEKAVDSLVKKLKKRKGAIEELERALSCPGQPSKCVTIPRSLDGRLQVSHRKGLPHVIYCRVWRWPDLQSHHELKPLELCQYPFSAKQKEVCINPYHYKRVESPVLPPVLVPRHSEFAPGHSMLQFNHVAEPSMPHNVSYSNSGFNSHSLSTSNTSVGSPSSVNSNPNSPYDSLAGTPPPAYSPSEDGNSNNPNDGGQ

Chain of MAD full length (B-H) (Drosophila melanogaster) (P42003 whole entry): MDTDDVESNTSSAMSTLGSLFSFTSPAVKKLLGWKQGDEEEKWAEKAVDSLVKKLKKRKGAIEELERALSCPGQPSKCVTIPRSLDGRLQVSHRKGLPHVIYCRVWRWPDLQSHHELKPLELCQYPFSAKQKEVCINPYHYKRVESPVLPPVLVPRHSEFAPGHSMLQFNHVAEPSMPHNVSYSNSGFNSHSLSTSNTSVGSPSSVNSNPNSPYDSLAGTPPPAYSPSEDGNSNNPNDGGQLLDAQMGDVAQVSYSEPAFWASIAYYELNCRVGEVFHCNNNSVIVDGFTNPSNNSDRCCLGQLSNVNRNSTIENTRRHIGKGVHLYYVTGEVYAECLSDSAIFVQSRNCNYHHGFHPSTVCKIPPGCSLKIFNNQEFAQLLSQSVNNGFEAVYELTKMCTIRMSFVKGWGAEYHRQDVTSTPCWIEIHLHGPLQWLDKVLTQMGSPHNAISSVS

ATTC (double strand) [Vg 20 bp] gave a binding signal (fraction of MAD^N) [1] of 0.01.
Work on “ATTC (double strand) [MAD binding site (FIG. 7B)]” yielded a binding signal ([2]; wild-type reference) of 1 reference.
Sequence “ATTC (double strand) [MAD binding site GCT to CGC]” has a binding signal ([2]; increased affinity vs wild-type site, MBP fusion) of 6 fold vs n15.
